Laboratory results: IntAct's records for PubMed 22089237

B1: Alpha-1A adrenergic receptor (Homo sapiens), P35348 (parent)
chain: MVFLSGNASDSSNCTQPPAPVNISKAILLGVILGGLILFGVLGNILVILSVACHRHLHSVTHYYIVNLAVADLLLTSTVLPFSAIFEVLGYWAFGRVFCNIWAAVDVLCCTASIMGLCIISIDRYIGVSYPLRYPTIVTQRRGLMALLCVWALSLVISIGPLFGWRQPAPEDETICQINEEPGYVLFSALGSFYLPLAIILVMYCRVYVVAKRESRGLKSGLKTDKSDSEQVTLRIHRKNAPAGGSGMASAKTKTHFSVRLLKFSREKKAAKTLGIVVGCFVLCWLPFFLVMPIGSFFPDFKPSETVFKIVFWLGYLNSCINPIIYPCSSQEFKKAFQNVLRIQCLCRKQSSKHALGYTLHPPSQAVEGQHKDMVRIPVGSRETFYRISKTDGVCEWKFFSSMPRGSARITVSKDQSSCTTARVRSKSFLQVCCCVGPSTPSLDKNHQVPTIKVHTISLSENGEEV

Variants of: B1
Settings: with arrb1_rat Arrb1, P29066
Chain of arrb1_rat Arrb1, P29066 (P29066 whole entry): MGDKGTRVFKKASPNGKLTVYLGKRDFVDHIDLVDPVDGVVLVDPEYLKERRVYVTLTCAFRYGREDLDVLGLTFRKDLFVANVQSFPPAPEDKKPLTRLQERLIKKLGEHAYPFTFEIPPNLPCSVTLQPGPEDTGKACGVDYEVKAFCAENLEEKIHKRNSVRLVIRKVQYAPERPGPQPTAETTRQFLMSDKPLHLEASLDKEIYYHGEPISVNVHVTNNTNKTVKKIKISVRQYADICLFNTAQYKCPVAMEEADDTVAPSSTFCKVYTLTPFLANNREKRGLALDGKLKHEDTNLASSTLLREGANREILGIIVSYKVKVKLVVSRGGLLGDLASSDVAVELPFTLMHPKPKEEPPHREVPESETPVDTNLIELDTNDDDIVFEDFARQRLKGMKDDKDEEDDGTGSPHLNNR

| effect of a mutation on the interaction | Variant |
| --- | --- |
| increasing interaction strength | G247R |
